First the molecules themselves.
B1: Hairpin Ribozyme (parent)
chain: GUCCUCUUUCACGUGCGCGUGAAAGAGAGAAGUGAACCAGAGAAACACACGUUGUGGUAUAUUACCUGGUA

In the data set the parent is B1. Description: self-cleavage, relative activity (ratio to wild type); higher = more cleavage; co-transcriptional.
With C3G U52G, the self-cleavage amounted to 0.212.

As for U14A U52A, the self-cleavage stood at 1.03.

For the variant A28G G42C, the self-cleavage amounted to 0.47.

With A28C A64G, the self-cleavage was determined as 0.285.

With U33G A64C, the self-cleavage was found to be 0.0723.

As to U33A G34U, the self-cleavage was 0.134.

Consider C16A G21A, for which the self-cleavage was determined as 0.67.

G19U G21A: the self-cleavage turned out to be 0.875.

Take C12G A41U: the self-cleavage was 1.25.

On to A23G G68U, for which the self-cleavage worked out at 0.198.

For G21U G32U, the self-cleavage came out at 0.1.

In the case of U5A A61G, the self-cleavage was 0.0553.

With C12A A61G, the self-cleavage stood at 0.174.

Consider G1U A44G, for which the self-cleavage came to 0.0639.

For G32C A35G, the self-cleavage was determined as 0.146.

As for A24U G54A, the self-cleavage came to 0.472.

On to G19C C38A, for which the self-cleavage came to 0.174.

For C37G A59U, the self-cleavage came out at 0.0586.

In the case of G29A C65G, the self-cleavage is 0.158.

U7G G68A: the self-cleavage was 0.3.

Regarding A30C A47G, the self-cleavage amounted to 0.0558.

Take G34U A45U: the self-cleavage amounted to 0.351.

For the variant A36U C50U, the self-cleavage turned out to be 0.125.

Regarding U7G A36G, the self-cleavage worked out at 0.828.

With G17U A71U, the self-cleavage stood at 0.815.

For A64U A71G, the self-cleavage worked out at 0.311.

U9G U55G: the self-cleavage turned out to be 0.0748.

Consider A39C A41G, for which the self-cleavage is 0.591.

For the variant C48U A49U, the self-cleavage amounted to 0.208.

With C50A G69U, the self-cleavage came to 0.173.

Take G1C A59C: the self-cleavage came to 0.113.

On to G19C U58G, for which the self-cleavage was 0.705.

Turning to G1C U5C, the self-cleavage amounted to 0.361.

Turning to C37U C46U, the self-cleavage was found to be 0.198.

For the variant U20C A35U, the self-cleavage is 0.82.

As to U9C U55A, the self-cleavage amounted to 0.299.

As for A26G U33G, the self-cleavage stood at 0.0904.

C6U A49C: the self-cleavage is 0.0449.

For the variant G29C, the self-cleavage was found to be 0.133.

A28G A36C: the self-cleavage was 0.778.

U55A G68U: the self-cleavage is 0.17.

In the case of U9A C46A, the self-cleavage was determined as 0.0884.

As for C10G A24U, the self-cleavage turned out to be 0.468.

With G34A C66G, the self-cleavage came out at 0.184.

For the variant G1C A28U, the self-cleavage amounted to 0.247.

With A39G A61C, the self-cleavage was 0.139.

As to A36U A45U, the self-cleavage is 0.057.

Consider A31U G69C, for which the self-cleavage is 0.111.

On to G42C U55A, for which the self-cleavage was found to be 0.169.

With G42A C50G, the self-cleavage came out at 0.128.

In the case of U14C C66A, the self-cleavage was found to be 0.223.

Regarding U5C C50G, the self-cleavage is 0.147.

For A24U A43C, the self-cleavage worked out at 0.174.

Consider C10G C12G, for which the self-cleavage is 0.477.

As to U62C G68C, the self-cleavage stood at 0.223.

On to C37A U55G, for which the self-cleavage is 0.0701.

Regarding G13U C18U, the self-cleavage came out at 0.967.

Take G32A G57A: the self-cleavage was determined as 0.0905.

As for G25C G51C, the self-cleavage worked out at 0.435.

Turning to C18A A71U, the self-cleavage is 0.831.

U5C A45U: the self-cleavage is 0.133.

Consider U2A C46A, for which the self-cleavage stood at 0.143.

Regarding U7A U60C, the self-cleavage was determined as 0.923.

On to C4U G25C, for which the self-cleavage was found to be 0.11.

As to A28C G54C, the self-cleavage was 0.187.

With G15A G25A, the self-cleavage stood at 0.576.

Consider C4G C18G, for which the self-cleavage came to 0.0835.

Turning to U52G U58C, the self-cleavage amounted to 0.707.

With U20C G25A, the self-cleavage amounted to 0.288.

Regarding A36G G56C, the self-cleavage was 0.0421.

With C3A G29A, the self-cleavage is 0.112.

With G21U G34U, the self-cleavage is 1.24.

For the variant U33C A49U, the self-cleavage was 0.127.

In the case of G51U G56U, the self-cleavage worked out at 0.0869.

On to U9G U20C, for which the self-cleavage was found to be 0.682.

Turning to G25C G54U, the self-cleavage is 0.245.

On to C37U C65A, for which the self-cleavage is 0.533.

For the variant C46U U63A, the self-cleavage is 0.0217.

Take U14A U58C: the self-cleavage was 0.78.

U14A U58A: the self-cleavage was 0.792.

Regarding U5G G19U, the self-cleavage stood at 0.274.

As for G1U A64G, the self-cleavage was 0.0823.

For the variant G54C A59C, the self-cleavage turned out to be 0.195.

With G40C G54A, the self-cleavage was determined as 0.124.

As for U63C G68C, the self-cleavage is 0.133.

For A43U A64C, the self-cleavage stood at 0.161.

Take G51U U58C: the self-cleavage was 0.982.

A24G A49U: the self-cleavage amounted to 0.124.

Take C48U C66A: the self-cleavage was 0.176.

Turning to C3A C38U, the self-cleavage is 0.416.

Take G15A U52C: the self-cleavage was determined as 0.916.

In the case of G17U U67C, the self-cleavage was determined as 0.184.

Consider A39G U67A, for which the self-cleavage was 0.126.

With U33G C66A, the self-cleavage worked out at 0.0596.

A23C U67C: the self-cleavage turned out to be 0.249.

G21U C38G: the self-cleavage stood at 0.167.

Take G21U C38U: the self-cleavage was determined as 0.357.

In the case of G27C C65A, the self-cleavage stood at 0.146.

As to U8G C46G, the self-cleavage stood at 0.128.

C38U U70C: the self-cleavage was determined as 0.268.

On to A59G G68A, for which the self-cleavage came out at 0.135.

Take A47U U52A: the self-cleavage was determined as 0.148.

With C16U U63A, the self-cleavage worked out at 0.253.

As to G57A U67A, the self-cleavage stood at 0.2.

On to A31C G68C, for which the self-cleavage is 0.135.

In the case of A23G U62G, the self-cleavage is 0.0705.

Turning to C6A U9A, the self-cleavage turned out to be 0.417.

In the case of G32C A59C, the self-cleavage was 0.198.

Regarding G32U A35U, the self-cleavage amounted to 0.191.

In the case of U52G U53A, the self-cleavage was found to be 0.857.

As for A61C A64C, the self-cleavage was 0.0878.

Regarding C3G A11C, the self-cleavage amounted to 0.137.

As to G1C G27U, the self-cleavage stood at 0.142.

As to C12A U58C, the self-cleavage was found to be 0.686.

As for A36G U53A, the self-cleavage is 1.2.

In the case of U67A G68U, the self-cleavage turned out to be 0.128.

Regarding C6A A64C, the self-cleavage is 0.148.

As to A61C U67C, the self-cleavage is 0.107.

For the variant A44U U52C, the self-cleavage stood at 0.059.

In the case of G32C U62G, the self-cleavage worked out at 0.0745.

As for U14C U67A, the self-cleavage is 0.151.

As for U33G G69C, the self-cleavage is 0.038.

Regarding G54A G69U, the self-cleavage is 0.143.

As for G29C C46U, the self-cleavage was determined as 0.171.

Consider U14G U53C, for which the self-cleavage turned out to be 0.925.

With A39G G68A, the self-cleavage amounted to 0.0973.

U33A U53A: the self-cleavage is 0.103.

As for A35G A45G, the self-cleavage was found to be 0.0332.

For G1C U8C, the self-cleavage stood at 0.172.

Consider U20A A22C, for which the self-cleavage stood at 0.373.

For the variant C10U, the self-cleavage is 0.775.

For the variant G32A A43U, the self-cleavage stood at 0.0753.

For G19U C65G, the self-cleavage worked out at 0.405.

Consider G25C G68C, for which the self-cleavage was 0.187.

Take U7G U33G: the self-cleavage came out at 0.194.

For U33A G57U, the self-cleavage stood at 0.13.

As to C37G A43U, the self-cleavage stood at 0.177.

Turning to G1C G29A, the self-cleavage was 0.174.

With G17U A44U, the self-cleavage is 0.0838.

In the case of G1A A30G, the self-cleavage turned out to be 0.231.

Regarding A30U C48U, the self-cleavage was found to be 0.197.

Consider C3U A22U, for which the self-cleavage worked out at 0.395.

Take C18G G51U: the self-cleavage came out at 0.953.

In the case of A45C U52A, the self-cleavage came out at 0.0823.

As for A22G U67A, the self-cleavage is 0.239.

Take A22G U67G: the self-cleavage turned out to be 0.247.

With G13C U55A, the self-cleavage was determined as 0.196.

Consider A30C A61U, for which the self-cleavage was determined as 0.097.

In the case of U9G U33G, the self-cleavage worked out at 0.145.

Take C37A U58A: the self-cleavage came to 0.235.

On to U60A A71C, for which the self-cleavage was found to be 1.24.

For the variant U2C G32U, the self-cleavage was 0.183.

As to C3G U14G, the self-cleavage was found to be 0.145.

A11U A39C: the self-cleavage is 0.495.

Take U55G U58A: the self-cleavage turned out to be 0.199.

On to G29C A47U, for which the self-cleavage is 0.093.

Consider G17U C37A, for which the self-cleavage was 0.26.

For C3U G68C, the self-cleavage was 0.142.

Take U20C A23C: the self-cleavage is 0.648.

For G17A G69C, the self-cleavage was found to be 0.249.

Turning to U33A U60A, the self-cleavage came to 0.0246.

With A26U A43G, the self-cleavage was determined as 0.121.

For U63A G69C, the self-cleavage was 0.0966.

Consider C3U A49G, for which the self-cleavage was determined as 0.409.

On to U20C A22G, for which the self-cleavage is 0.877.

In the case of U14G A44U, the self-cleavage was 0.138.

For the variant C18A A64G, the self-cleavage came to 0.61.

These data come from the RNAGym collection of RNA variant scans (doi:10.7554/elife.80360).
